{"source": "patent US20190077864A1", "about": "(ONCOMED PHARMACEUTICALS, published 2019)", "binders": {"B1": {"name": "anti-TIGIT antibody 313M32 (antibody, human IgG1, kappa, V domains shown)", "VH": "QVQLQESGPGLVKPSETLSLTCAVSGYSITSDYAWNWIRQPPGKGLEWIGYISYSGSTSYNPSLRSRVTISRDTSKNQFFLKLSSVTAADTAVYYCARRQVGLGFAYWGQGTLVTVSS", "VL": "DIQMTQSPSSLSASVGDRVTITCKASQDVSTAVAWYQQKPGKAPKLLIYSASYRYTGVPSRFSGSGSGTDFTFTISSLQPEDIATYYCQQHYSTPWTFGQGTKVEIKR", "notes": "Humanized version of 313M26, human IgG1"}}, "key": {"[1]": {"biological_target": "T1, hTIGIT variant 3 (Q62H and Q64H)-CD4TM-GFP on HEK-293T cells (human, UniProt Q495A1 22-141)", "T1 construct": "not shown: transmembrane domain of CD4 (CD4TM); GFP tag", "T1 chain": "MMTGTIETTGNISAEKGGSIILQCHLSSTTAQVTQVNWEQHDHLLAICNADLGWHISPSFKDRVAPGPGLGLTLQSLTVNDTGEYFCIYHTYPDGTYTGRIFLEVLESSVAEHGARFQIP", "test": "FACS on transfected HEK-293T cells", "method": "(§1) To identify the binding epitope of antibody 313M32, an analysis was performed with a series of variants of human TIGIT with specific amino acid substitutions. The variants were based upon the differences between human TIGIT and cynomolgus TIGIT amino acid sequences, SEQ ID NO:4 and SEQ ID NO:77, respectively. The amino acid sequence of rhesus monkey TIGIT (SEQ ID NO:78) is identical to cynomolgus TIGIT (FIG. 21). The amino acid variants introduce amino acid residues present in cynomolgus monkey TIGIT into corresponding positions in human TIGIT. The hTIGIT variants generated have substitutions at (1) E36K and […]; (2) T51M, (3) Q62H and Q64H, (4) D72E, (5) S78Y and S80A, (6) V100M, (7) I109T and T119R, and (8) G135S. Each variant hTIGIT was generated using the hTIGIT (aa 22-141)-CD4TM-GFP construct described in Example 15.\n(§2) The TIGIT variants were evaluated by FACS with anti-hTIGIT antibodies. […] After 16 hours, transfected cells were suspended in ice cold HBSS containing 2% FBS and incubated on ice with 1 μg/ml anti-hTIGIT antibodies 313R12, 313M32, or 313M34 for 30 minutes. 313M34 is an anti-hTIGIT antibody that was generated based upon the amino acid sequences of the 10A7 antibody described in U.S. Publication 2009/0258013. […] The cells were analyzed on a FACSCanto instrument (BD Biosciences) and the data was processed using FlowJo software."}, "[2]": {"biological_target": "T2, hTIGIT variant 7 (I109T and T119R)-CD4TM-GFP on HEK-293T cells (human, UniProt Q495A1 22-141)", "T2 construct": "not shown: transmembrane domain of CD4 (CD4TM); GFP tag", "T2 chain": "T1 chain with H41Q, H43Q, I88T, T98R", "test": "FACS on transfected HEK-293T cells", "method": "as §1, §2"}, "human TIGIT": {"biological_target": "T3, human TIGIT (human, UniProt Q495A1 22-141, limits assumed)", "T3 construct": "also called hTIGIT", "T3 sequence": "T1 chain with H41Q, H43Q", "test": "Biacore, preliminary; format not stated"}, "[3]": {"biological_target": "T4, hTIGIT variant 1 (E36K and I41V)-CD4TM-GFP on HEK-293T cells (human, UniProt Q495A1 22-141)", "T4 construct": "read as I41V; not shown: transmembrane domain of CD4 (CD4TM); GFP tag", "T4 chain": "T1 chain with E15K, I20V, H41Q, H43Q", "test": "FACS, 1 µg/ml antibody on transfected HEK-293T cells", "method": "as §1\n(§3) The TIGIT variants were evaluated by FACS with anti-hTIGIT antibodies. […] After 16 hours, transfected cells were suspended in ice cold HBSS containing 2% FBS and incubated on ice with 1 μg/ml anti-hTIGIT antibodies 313R12, 313M32, or 313M34 for 30 minutes. 313M34 is an anti-hTIGIT antibody that was generated based upon the amino acid sequences of the 10A7 antibody described in U.S. Publication 2009/0258013. The 10A7 antibody is an anti-mouse TIGIT antibody that binds both mouse TIGIT and human TIGIT. A second incubation with 50 μl PE-conjugated anti-Fc secondary antibody was performed to detect cells bound by the antibodies. The cells were analyzed on a FACSCanto instrument (BD Biosciences) and the data was processed using FlowJo software."}, "[4]": {"biological_target": "T5, hTIGIT variant 2 (T51M)-CD4TM-GFP on HEK-293T cells (human, UniProt Q495A1 22-141)", "T5 construct": "not shown: transmembrane domain of CD4 (CD4TM); GFP tag", "T5 chain": "T1 chain with T30M, H41Q, H43Q", "test": "FACS, 1 µg/ml antibody on transfected HEK-293T cells", "method": "as §1, §3"}, "[5]": {"biological_target": "T6, hTIGIT variant 4 (D72E)-CD4TM-GFP on HEK-293T cells (human, UniProt Q495A1 22-141)", "T6 construct": "not shown: transmembrane domain of CD4 (CD4TM); GFP tag", "T6 chain": "T1 chain with H41Q, H43Q, D51E", "test": "FACS, 1 µg/ml antibody on transfected HEK-293T cells", "method": "as §1, §3"}, "[6]": {"biological_target": "T7, hTIGIT variant 5 (S78Y and S80A)-CD4TM-GFP on HEK-293T cells (human, UniProt Q495A1 22-141)", "T7 construct": "not shown: transmembrane domain of CD4 (CD4TM); GFP tag", "T7 chain": "T1 chain with H41Q, H43Q, S57Y, S59A", "test": "FACS, 1 µg/ml antibody on transfected HEK-293T cells", "method": "as §1, §3"}, "[7]": {"biological_target": "T8, hTIGIT variant 6 (V100M)-CD4TM-GFP on HEK-293T cells (human, UniProt Q495A1 22-141)", "T8 construct": "not shown: transmembrane domain of CD4 (CD4TM); GFP tag", "T8 chain": "T1 chain with H41Q, H43Q, V79M", "test": "FACS, 1 µg/ml antibody on transfected HEK-293T cells", "method": "as §1, §3"}, "[8]": {"biological_target": "T9, hTIGIT variant 8 (G135S)-CD4TM-GFP on HEK-293T cells (human, UniProt Q495A1 22-141)", "T9 construct": "not shown: transmembrane domain of CD4 (CD4TM); GFP tag", "T9 chain": "T1 chain with H41Q, H43Q, G114S", "test": "FACS, 1 µg/ml antibody on transfected HEK-293T cells", "method": "as §1, §3"}, "[9]": {"biological_target": "T10, hTIGIT-CD4TM-GFP on HEK-293T cells (human, UniProt Q495A1 22-141)", "T10 construct": "Cell surface fusion protein, transiently expressed; also called human TIGIT ECD-CD4TM-GFP; FLAG-hTIGIT-CD4TM-GFP; not shown: transmembrane domain of CD4 (CD4TM); C-terminal GFP protein tag", "T10 sequence": "T1 chain with H41Q, H43Q", "test": "inferred from two blocking studies of hPVR-rbFc binding to hTIGIT cells, flow cytometry", "method": "After 16 hours, transfected cells were suspended in ice cold HBSS containing 2% FBS and heparin and incubated on ice with 0.5 μg/ml hPVR-rbFc fusion protein in the presence of anti-TIGIT antibodies 313R19, 313M26, or 313M32 for 60 minutes. Antibody 313R19 is a humanized version of a rabbit anti-TIGIT antibody. 313R19 binds mouse and human TIGIT. The antibodies were tested at concentrations of 10, 2, and 0.4 ug/ml. Cells were incubated without antibody or without hPVR-rbFc as controls. A second incubation with 100 μl PE-conjugated anti-rabbit Fc secondary antibody was performed to detect cells bound by the hPVR-rbFc fusion protein. The cells were analyzed on a FACSCanto instrument (BD Biosciences) and the data was processed using FlowJo software.\nAll three anti-TIGIT antibodies blocked binding of hPVR-rbFc to hTIGIT at the highest concentration of 10 μg/ml."}, "[10]": {"biological_target": "T11, mouse TIGIT ECD-CD4TM-GFP on HEK-293T cells (mouse, UniProt P86176 29-148)", "T11 construct": "The legend names the construct as mouse TIGIT ECD; also called mouse TIGIT-CD4TM-GFP; mTIGIT-CD4TM-GFP; not shown: transmembrane domain of CD4 (CD4TM); GFP (green fluorescent protein)", "T11 sequence": "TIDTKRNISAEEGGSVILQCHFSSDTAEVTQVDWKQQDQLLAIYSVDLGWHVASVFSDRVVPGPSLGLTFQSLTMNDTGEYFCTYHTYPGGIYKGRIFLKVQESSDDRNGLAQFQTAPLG", "test": "flow cytometry, 1 µg/ml antibody on HEK-293T cells transiently transfected with mTIGIT-CD4TM-GFP, PE-conjugated anti-Fc secondary", "method": "as §3"}}, "note": "Residue numbers refer to the chain shown, from its start.", "data": [{"binder": "B1", "values": [{"measurement": "binding result", "setting": "[1]", "value": "no binding (tested: 1 µg/ml)"}, {"measurement": "binding result", "setting": "[2]", "value": "no binding (tested: 1 µg/ml)"}, {"measurement": "Kd", "setting": "human TIGIT", "value": 0.4, "unit": "nM"}, {"measurement": "binding result", "setting": "[3]", "value": "binds"}, {"measurement": "binding result", "setting": "[4]", "value": "binds"}, {"measurement": "binding result", "setting": "[5]", "value": "binds"}, {"measurement": "binding result", "setting": "[6]", "value": "binds"}, {"measurement": "binding result", "setting": "[7]", "value": "binds"}, {"measurement": "binding result", "setting": "[8]", "value": "binds"}, {"measurement": "fold higher affinity than antibody 313R19", "setting": "[9]", "value": "~5", "unit": "fold"}, {"measurement": "binding result", "setting": "[10]", "value": "no binding (tested: 1 µg/ml)"}]}]}
